Numbering of substitutions follows the chain as printed. *: point of attachment. Biotin = O=C1N[C@H]2[C@H](CS[C@H]2CCCCC(=O)*)N1
T1: His‐tagged GCase wt (10xHis, C‐terminal, TEV‐cleavable) (human, UniProt P04062-1 40-536, red fluorescent dye NT-637 on amines (RED-NHS labelling kit), for MST)
T1 construct: human beta-glucocerebrosidase (GCase) wild type, secreted from cells transfected with pCMV-3-GBA-His; also called GCase-His; source: HEK 293F, transfected, purified from conditioned medium (Ni-NTA); not shown: 10xHis (TEV-cleavable), C-terminal, kept
T1 sequence (looked up): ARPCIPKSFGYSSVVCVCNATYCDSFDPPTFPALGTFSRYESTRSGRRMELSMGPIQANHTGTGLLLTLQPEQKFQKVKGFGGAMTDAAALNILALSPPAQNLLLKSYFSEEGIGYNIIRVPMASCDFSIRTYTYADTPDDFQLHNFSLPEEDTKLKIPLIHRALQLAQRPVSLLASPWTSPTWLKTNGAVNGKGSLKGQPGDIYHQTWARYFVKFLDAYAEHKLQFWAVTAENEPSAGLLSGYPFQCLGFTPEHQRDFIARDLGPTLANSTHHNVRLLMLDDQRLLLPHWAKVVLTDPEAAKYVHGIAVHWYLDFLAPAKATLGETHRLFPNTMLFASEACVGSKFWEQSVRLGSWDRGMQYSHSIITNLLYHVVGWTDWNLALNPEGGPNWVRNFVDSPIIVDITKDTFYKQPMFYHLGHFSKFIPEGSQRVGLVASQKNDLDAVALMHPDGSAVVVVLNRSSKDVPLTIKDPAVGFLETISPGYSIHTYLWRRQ

T2: untagged GCase E326K (human, UniProt P04062-1 40-536, E326K)
T2 construct: human beta-glucocerebrosidase (GCase), disease-associated variant E326K, untagged; printed also as p.Glu365Lys (NM_000157.4); numbers count on: the mature protein; also called E326K GCase; p.E326K; source: HEK 293F, transfected (with sLIMP-2 or alone), in conditioned medium; co-purified with sLIMP-2 (Ni-NTA, SEC)
T2 sequence (looked up): T1 sequence (looked up) with E326K

T3: untagged GCase N370S (human, UniProt P04062-1 40-536, N370S)
T3 construct: human beta-glucocerebrosidase (GCase), disease-associated variant N370S, untagged; numbers count on: the mature protein; also called N370S GCase; p.N370S; source: HEK 293F, transfected with sLIMP-2, in conditioned medium; co-purified with sLIMP-2 (Ni-NTA, SEC)
T3 sequence (looked up): T1 sequence (looked up) with N370S

T4: untagged human GCase wt (human, UniProt P04062-1 40-536)
T4 construct: human beta-glucocerebrosidase (GCase) wild type, untagged, secreted into the medium; also called wt GCase; beta-glucocerebrosidase; source: HEK 293F, transfected (with sLIMP-2 or alone), in conditioned medium; co-purified with sLIMP-2 (Ni-NTA, SEC)
T4 sequence (looked up): T1 sequence (looked up)

B1: L2H5‐wt peptide (LIMP‐2‐derived helix 5 peptide) (peptide)
peptide: Biotin-KFERQGSGSQVHFLREIIEAMLKAYQSGSGYGRKKRRQRRR-NH2
notes: also called LIMP-2-derived peptide; LIMP-2-mimicking peptide; source: synthetic peptide (BioCat, >95% purity)
B2: soluble LIMP‐2 (sLIMP‐2), secreted LIMP‐2 ectodomain (domain or fragment, human, UniProt Q14108 36-431, looked up)
chain: SIEKKIVLRNGTEAFDSWEKPPLPVYTQFYFFNVTNPEEILRGETPRVEEVGPYTYRELRNKANIQFGDNGTTISAVSNKAYVFERDQSVGDPKIDLIRTLNIPVLTVIEWSQVHFLREIIEAMLKAYQQKLFVTHTVDELLWGYKDEILSLIHVFRPDISPYFGLFYEKNGTNDGDYVFLTGEDSYLNFTKIVEWNGKTSLDWWITDKCNMINGTDGDSFHPLITKDEVLYVFPSDFCRSVYITFSDYESVQGLPAFRYKVPAEILANTSDNAGFCIPEGNCLGSGVLNVSICKNGAPIIMSFPHFYQADERFVSAIEGMHPNQEDHETFVDINPLTGIILKAAKRFQINIYVKKLDDFVETGDIRTMVFPVMYLNESVHIDKETASRLKSMINT
notes: lysosomal integral membrane protein 2 (LIMP-2), human, luminal domain, amino acids 36-431; also called LIMP-2 shuttle; sLIMP-2-shuttle; source: HEK 293F, transfected, secreted into conditioned medium; purified (Ni-NTA, SEC); not shown: 10xHis (TEV-cleavable), C-terminal, kept

Experiments:
[1] = biological target: T1, His‐tagged GCase wt (10xHis, …); experiment: MST; GCase-His labelled, L2H5-wt titrated; lysosomal pH (pH 5.0); saturation not reached; details: both partners purified
[2] = biological target: T1, His‐tagged GCase wt (10xHis, …); experiment: MST; GCase-His labelled with NT-637, fixed at 25 nM; L2H5-wt titrated in a twofold series of 16 from 125 µM; 50 mM sodium citrate + 0.05% Tween-20, pH 7.4 (cytosolic pH); ambient temperature; the two highest concentrations left out of the Kd fit; details: both partners purified
untagged GCase E326K = biological target: T2, untagged GCase E326K; experiment: pull-down; Ni-NTA beads in conditioned medium of HEK 293F cells expressing His-tagged sLIMP-2 with untagged GCase (96 h); overnight at 4 °C; wash with 20 mM imidazole, elution with 400 mM imidazole, pH 8.0; western blot; details: partners not purified
untagged GCase N370S = biological target: T3, untagged GCase N370S; experiment: as above; details: partners not purified
untagged human GCase wt = biological target: T4, untagged human GCase wt; experiment: as above; details: partners not purified

Row | Binder | Kd [1] [µM] | Kd [2] [µM] | binding result (untagged GCase E326K) | binding result (untagged GCase N370S) | binding result (untagged human GCase wt)
1 | B1 | ~98 | 0.153 ± 0.037 | – | – | –
2 | B2 | – | – | binds | binds | binds

From publication PMC11220700, “Activation and Purification of ß‐Glucocerebrosidase by Exploiting its Transporter LIMP‐2 – Implications for Novel Treatment Strategies in Gaucher's and Parkinson's Disease” (Advanced Science, 2024)
